Measurements as given in paper PMC6278290, “Biochemical and Functional Characterization of Anthocyanidin Reductase (ANR) from Mangifera indica L” (Molecules, 2018).

What was measured:
purified protein [1] = substrate: NC(=O)C1=CN([C@@H]2O[C@H](COP(=O)(O)OP(=O)(O)OC[C@H]3O[C@@H](n4cnc5c(N)ncnc54)[C@H](OP(=O)(O)O)[C@@H]3O)[C@@H](O)[C@H]2O)C=CC1; test: purified protein; assay type: biochemical, Mangifera indica; conditions: 100 μM cyanidin, 100 mM citrate buffer pH 4.0, 30 °C, 20 min, substrate inhibition at 1.25-3.75 mM, varied: cofactor
purified protein [2] = substrate: Oc1cc(O)c2cc(O)c(-c3ccc(O)c(O)c3)[o+]c2c1; test: purified protein; assay type: biochemical, Mangifera indica; conditions: 1 mM NADPH, 20 min
[3] = 100 mM citrate buffer pH 4.0, 30 °C
[4] = 100 mM phosphate buffer pH 3.0, 30 °C

Protein	Km (purified protein [1]) [µM]	Vmax (purified protein [1]) [µmol/min/mg]	Km (purified protein [2]; [3]) [µM]	kcat/Km (purified protein [2]; [3]) [M⁻¹ s⁻¹]	Km (purified protein [2]; [4]) [µM]	kcat/Km (purified protein [2]; [4]) [M⁻¹ s⁻¹]
MiANR1-3 (Mangifera indica; S2A) (protein, S2A from the NcoI site; C-terminal His6 tag (pET28b), E. coli BL21(DE3) pLysS, Ni-NTA purified; about 37 kDa on SDS-PAGE) MAAQQTAKNTACVVGGTGFVASLLIKLLLQKGYSVSTTVRDPDNQQKISHLLSLQELGELKIFGADLTDEGSFDAPIAGSDIVFHVATPVNFASEDPENDMIKPAIQGVENVLKACAKAKTVKRVILTSSAAAVTINNQDGTGLVMDEKHWTDVEFLSSAKPPTWGYPVSKTLAERHAWKFAQENNIDLITIIPSLMAGPSLTPDIPSSLNLAMSLISGNEFLTNALKGMQMLSGSISIAHVEDVCRAHIFLAEKESASGRYICCAVNTSVPELAKFLHQRYPQYKVPTDFGDFPSKPKLLISSGKLISEGFSFKFGIEEIYDQTVEYFKAKGVL	18.98 ± 1.18	0.019	80.43 ± 5.85	401000	–	–
MiANR1-2 (Mangifera indica; S2A) (protein, S2A from the NcoI site; C-terminal His6 tag (pET28b), E. coli BL21(DE3) pLysS, Ni-NTA purified; about 37 kDa on SDS-PAGE) MAAQQTAKNTACVVGGTGFVASLLIKLLLQKGYSVSTTVRDPDNQQKISHLLSLQELGELKIFGADLTDEGSFDAPIAGSDIVFHVATPVNFASEDPENDMIKPAIQGVENVLKACAKAKTVKRVILTSSAAAVTINNQDGTGLVMDEKHWTDVEFLSSAKPPTWGYPASKTLAERHAWKFAQENNIDLITIIPSLMAGPSLTPDIPSSLNLAMSLISGNEFLTNALKGMQMLSGSISIAHVEDVCRAHIFLAEKESASGRYICCAVNTSVPELAKFLQQRYPQYKVPTDFGDFPSKPKLLISSEKLISEGFSFKFGIEEIYDQTVEYFKAKGVL	18.14 ± 1.4	0.0227	116.4 ± 4.42	363000	–	–
MiANR1-1 (Mangifera indica; S2A) (protein, S2A from the NcoI site; C-terminal His6 tag (pET28b), E. coli BL21(DE3) pLysS, Ni-NTA purified; about 37 kDa on SDS-PAGE) MAAQQTAKNTACVVGGTGFVASLLIKLLLQKGYSVSTTVRDPGNQKKISHLLSLQELGELKIFGADLTDEGSFDAPIAGSDIVFHVATPVNFASEDPENDMIKPAIQGVGNVLKACAKAKTVKRVILTSSAAAVTINNQDGTGLVMDEKHWTDVEFLSSAKPPTWGYPASKTLAERHAWKFAQDNNIDLITIIPSLMAGPSLTPDIPSSLNLAMSLISGNEFLTNALKGMQMLSGSISIAHVEDVCRAHIFLAEKESASGRYICCAVNTSVPELAKFLQQRYPQYKVPTDFGDFPSKPKLLISSEKLISEGFSFKFGIEEIYDQTVEYFKAKGVL	–	–	–	–	48.32 ± 3.45	330000
